Results taken from publication PMC6065011.

Columns and labels:
[1] = molecular target: HMGB1, disulfide form (recombinant) (UniProt P09429); assay: SPR
[2] = molecular target: Siglec-10-Fc (soluble, recombinant) (UniProt Q96LC7); assay: SPR
UniProt Q96LC7, sequence (Q96LC7 17-550): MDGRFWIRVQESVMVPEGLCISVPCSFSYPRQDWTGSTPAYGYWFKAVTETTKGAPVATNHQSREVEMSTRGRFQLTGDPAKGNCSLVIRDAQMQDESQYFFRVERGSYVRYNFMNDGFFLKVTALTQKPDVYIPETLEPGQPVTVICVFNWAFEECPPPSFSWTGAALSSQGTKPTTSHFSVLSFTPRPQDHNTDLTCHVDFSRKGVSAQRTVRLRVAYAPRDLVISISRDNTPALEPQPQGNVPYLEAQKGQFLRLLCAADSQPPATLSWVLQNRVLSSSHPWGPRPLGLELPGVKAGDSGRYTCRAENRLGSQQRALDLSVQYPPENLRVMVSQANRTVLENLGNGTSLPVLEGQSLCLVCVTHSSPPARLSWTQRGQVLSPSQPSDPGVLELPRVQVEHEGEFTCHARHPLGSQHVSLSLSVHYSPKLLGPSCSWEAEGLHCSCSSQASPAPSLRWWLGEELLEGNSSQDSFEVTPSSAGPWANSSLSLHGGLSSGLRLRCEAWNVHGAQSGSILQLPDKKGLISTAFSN

UniProt P09429, sequence (P09429 whole entry): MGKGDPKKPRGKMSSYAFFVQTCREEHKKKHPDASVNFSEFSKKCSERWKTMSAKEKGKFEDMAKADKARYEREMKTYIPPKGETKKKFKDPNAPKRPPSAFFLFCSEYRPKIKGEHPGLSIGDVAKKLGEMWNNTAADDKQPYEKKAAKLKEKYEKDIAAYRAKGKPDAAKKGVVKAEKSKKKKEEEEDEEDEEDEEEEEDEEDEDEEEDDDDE

Substance: CD52-Fc (soluble CD52, recombinant) (from UniProt P31358 25-36) (Fc fusion)
- Kd [1]: 130 nM
- Kd [2]: 565 nM
